According to patent US20070134256A1 (US Dept. of Health and Human Services, published 2007):
Substitutions are numbered along the chain they refer to. Where two headings read alike, the source gives them in different places.

Key:
[1] = molecular target: T1, dengue type 3 virus (DENV-3), strain H87, virions (dengue type 3 virus, UniProt P27915 281-773; P27915 115-280); test: cell-based or functional assay
[2] = molecular target: T2, dengue type 2 virus (DENV-2), prototype New Guinea C strain, virions (dengue type 2 virus, UniProt P14340 281-775; P14340 115-280); test: cell-based or functional assay
[3] = molecular target: T3, dengue type 4 virus (DENV-4), strain 814669, virions (dengue type 4 virus, UniProt P09866 280-774; P09866 114-279); test: cell-based or functional assay
[4] = molecular target: T4, dengue type 1 virus (DENV-1), Western Pacific strain, virions (dengue type 1 virus, UniProt P17763 281-775; P17763 115-280); test: cell-based or functional assay
[5] = molecular target: T3, dengue type 4 virus (DENV-4), strain …; test: ELISA Kd
[6] = molecular target: T5, DENV-4 mutant containing Leu107Phe (dengue type 4 virus, UniProt P09866 280-774); test: ELISA Kd
T5 construct: Mutant virus; also called mutant Leu107Phe

[7] = molecular target: T6, DENV-2 antigenic variant NGB-V1 (dengue type 2 virus); test: ELISA Kd against parental DENV-2 NGB
[8] = molecular target: T7, DENV-2 antigenic variant NGB-V2 (dengue type 2 virus); test: ELISA Kd against parental DENV-2 NGB
[9] = molecular target: T6, DENV-2 antigenic variant NGB-V1
[10] = molecular target: T7, DENV-2 antigenic variant NGB-V2
[11] = molecular target: DENV-2 NGB-V2/DENV-4 chimera (dengue type 2 virus); test: cell-based or functional assay
[12] = molecular target: DENV-2 NGB-V1/DENV-4 chimera (dengue type 2 virus); test: cell-based or functional assay
[13] = molecular target: T3, dengue type 4 virus (DENV-4), strain …; test: cell-based or functional assay; remark: listed apart in the source
[14] = molecular target: DENV-2 New Guinea C (NGC) parent virus, mouse-adapted (dengue type 2 virus, UniProt P14340 281-775); test: cell-based or functional assay
WNV/DENV-4 chimera = WNV/DENV-4 chimera (West Nile virus); test: cell-based or functional assay
[15] = molecular target: chimeric DENV-2 (NGB-P)/DENV-4 (dengue type 2 virus); test: cell-based or functional assay
[16] = molecular target: T5, DENV-4 mutant containing Leu107Phe; test: cell-based or functional assay
[17] = molecular target: T6, DENV-2 antigenic variant NGB-V1; test: cell-based or functional assay
[18] = molecular target: T7, DENV-2 antigenic variant NGB-V2; test: cell-based or functional assay
[19] = molecular target: T1, dengue type 3 virus (DENV-3), strain …; test: ELISA, virion-coated plate, Fab from ~140 µg/ml
[20] = molecular target: T2, dengue type 2 virus (DENV-2), prototype …; test: ELISA, virion-coated plate, Fab from ~140 µg/ml
[21] = molecular target: T3, dengue type 4 virus (DENV-4), strain …; test: ELISA, virion-coated plate, Fab from ~140 µg/ml
[22] = molecular target: T4, dengue type 1 virus (DENV-1), Western …; test: ELISA, virion-coated plate, Fab from ~140 µg/ml
DENV-4 prM glycoprotein = DENV-4 prM glycoprotein (dengue type 4 virus, UniProt P09866 114-279); test: radioimmunoprecipitation of prM expressed alone by recombinant vaccinia virus
[23] = molecular target: T3, dengue type 4 virus (DENV-4), strain …; test: cell-based or functional assay; remark: listed apart in the source
[24] = molecular target: T1, dengue type 3 virus (DENV-3), strain …; test: ELISA, virion-coated plate
[25] = molecular target: T2, dengue type 2 virus (DENV-2), prototype …; test: ELISA, virion-coated plate
[26] = molecular target: T4, dengue type 1 virus (DENV-1), Western …; test: ELISA, virion-coated plate
[27] = molecular target: T1, dengue type 3 virus (DENV-3), strain …; test: ELISA, virion-coated plate, Fab from ~300 µg/ml
[28] = molecular target: T2, dengue type 2 virus (DENV-2), prototype …; test: ELISA, virion-coated plate, Fab from ~300 µg/ml
[29] = molecular target: T3, dengue type 4 virus (DENV-4), strain …; test: ELISA, virion-coated plate, Fab from ~300 µg/ml
[30] = molecular target: T4, dengue type 1 virus (DENV-1), Western …; test: ELISA, virion-coated plate, Fab from ~300 µg/ml
[31] = molecular target: T1, dengue type 3 virus (DENV-3), strain …; test: ELISA, virion-coated plate; remark: listed apart in the source
[32] = molecular target: T2, dengue type 2 virus (DENV-2), prototype …; test: ELISA, virion-coated plate; remark: listed apart in the source
[33] = molecular target: T4, dengue type 1 virus (DENV-1), Western …; test: ELISA, virion-coated plate; remark: listed apart in the source
DENV-4 E glycoprotein [34] = molecular target: T8, DENV-4 E glycoprotein (dengue type 4 virus, UniProt P09866 280-774); test: radioimmunoprecipitation of E expressed alone by recombinant vaccinia virus
T8 construct: also called vDENV-4 E product

DENV-4 E glycoprotein [35] = molecular target: T8, DENV-4 E glycoprotein; test: radioimmunoprecipitation

B1: chimpanzee Fab 1A5 (Fab, V domains shown)
VH: EVQLLESGGGLVQPGGSRRLSCAASGFTISDNVMHWVRQAPGKGLEWVALIYSADTTHYADSVKGRFTISRDNSKNTLYLQMDSLRPEDTAVYYCAREYCTGDTCFAHFDYWGQGTLVSVSS
VL: ELQMTQSPSSVSASVGDTVTIACRASQSITNYLSWYQQKPGKAPKLLIYHASTLQSGIPSRFSGSGSGTDFTLTISSLQPDDFATYYCHYGYGTHTFGQGTKLEIKR
PRNT50 titer [1]: 3.49 µg/mL | PRNT50 titer [2]: 0.77 µg/mL | PRNT50 titer [3]: 4.23 µg/mL | PRNT50 titer [4]: 0.49 µg/mL | Kd [5]: 0.65 nM | Kd [6]: 3.07 nM | Affinity Reduction (fold) [7]: 1.6 fold | Affinity Reduction (fold) [8]: 80.3 fold | Kd [9]: 0.75 nM | Kd [10]: 37.8 nM | PRNT50 titer [11]: > 70 µg/mL | PRNT50 titer [12]: 31.7 µg/mL | PRNT50 titer [13]: 4.3 µg/mL | PRNT50 titer [14]: 0.89 µg/mL | PRNT50 titer (WNV/DENV-4 chimera): 4.8 µg/mL | PRNT50 titer [15]: 0.64 µg/mL | PRNT50 titer [16]: ~50 µg/mL | PRNT50 titer [17]: 12 µg/mL | PRNT50 titer [18]: > 70 µg/mL | ELISA titer of Fab binding [19]: 3.8 log10 of reciprocal dilution | ELISA titer of Fab binding [20]: 3.8 log10 of reciprocal dilution | ELISA titer of Fab binding [21]: 3.8 log10 of reciprocal dilution | ELISA titer of Fab binding [22]: 4.1 log10 of reciprocal dilution

B2: chimpanzee Fab 5D9 (Fab, V domains shown)
VH: EVQLLESGPGLVKPSETLSLTCTVSGGSISDFYWSWLRQSPGKGLEWIGVAHSRVSAYYNPSLKSRVTISVDTSKNQLSLRLSAVTAADAALYYCARQGTGTTGVSEDPFDLWGQGTKVIVSL
VL: ELTQSPSSLSASVGDRVTITCRASQGISNRLNWYQQKPGQGPKFLMYDASSLVSGVPSRFSGSGSGTDFTLTISSLQPEDFAVYYCQQFNSYPLTFGGGTKLEIKR
binding result (DENV-4 prM glycoprotein): no binding | PRNT50 titer [23]: 0.58 µg/mL | binding result [24]: no binding | binding result [25]: no binding | binding result [26]: no binding | ELISA titer of Fab binding [27]: < 1 log10 of reciprocal dilution | ELISA titer of Fab binding [28]: < 1 log10 of reciprocal dilution | ELISA titer of Fab binding [29]: 3.41 log10 of reciprocal dilution | ELISA titer of Fab binding [30]: < 1 log10 of reciprocal dilution

B3: chimpanzee Fab 5H2 (Fab, V domains shown)
VH: B2 VH with V50Y, A90T
VL: ELQMTQSPSSLSASVGDRVTITCRASQDISIRLNWYQQKPGKAPKLLIYDASTLESGVPSRFSGSGSGTDFTLTISSLQPEDFATYYCQQFNSYPLTFGGGTKVEIKR
binding result [31]: no binding | binding result [32]: no binding | binding result [33]: no binding | ELISA titer of Fab binding [19]: < 1 log10 of reciprocal dilution | ELISA titer of Fab binding [20]: < 1 log10 of reciprocal dilution | ELISA titer of Fab binding [22]: < 1 log10 of reciprocal dilution | binding result (DENV-4 E glycoprotein [34]): binds | ELISA titer of Fab binding [27]: < 1 log10 of reciprocal dilution | ELISA titer of Fab binding [28]: < 1 log10 of reciprocal dilution | ELISA titer of Fab binding [30]: < 1 log10 of reciprocal dilution

B4: chimpanzee Fab 5A7 (Fab, V domains shown)
VH: EVQLLESGGGLVQPGGSLRLSCAASGVTFSSYWMHWVRQAPGKGLEWVSRINSDGSSTNYADSVEGRFTISRDNAKNTLYLQMNSLRAEDTAVYYCSRGGLWDWSPRRIEETKTPFDYWGQGTLVTVSS
VL: ELTQGPATLSLSPGERATLSCRAGQSLDSSLLSWYQQKPGQAPRLLMYDASTRAPGVPARFSGSGSGTDFTLTISSLQPEDFAVYYCQQHYNLPRTFGQGTKLEIKR
PRNT50 titer [23]: > 200 µg/mL | ELISA titer of Fab binding [27]: 2.51 log10 of reciprocal dilution | ELISA titer of Fab binding [28]: 2.51 log10 of reciprocal dilution | ELISA titer of Fab binding [29]: 3.41 log10 of reciprocal dilution | ELISA titer of Fab binding [30]: 2.51 log10 of reciprocal dilution | binding result (DENV-4 E glycoprotein [35]): no binding
